Experimental data from paper PMC8327350, “Interaction between the transmembrane domains of neurotrophin receptors p75 and TrkA mediates their reciprocal activation” (The Journal of Biological Chemistry, 2021).
Each block holds one molecule with its values, some of them ahead of it. No end group written: not given here.

B2: p75-TM-C257A (C257A point mutant form of p75TM) (domain or fragment, human)
chain: MTRGTTDNLIPVYASILAAVVVGLVAYIAFKRWNSSKQNKQ
modifications: also: 15N-labeled in one set, unlabeled in the other
notes: methionine printed before T245; Seen as monomer, noncovalent homodimer and heterodimer with TrkA-TM in the NMR samples; also called p75-C257A; p75-C257A-TM; source: cell-free expression (E. coli Rosetta(DE3)pLysS S30 extract), in DPC micelles

Assays:
[1] = target: full-length TrkA tagged with mTurquoise (UniProt P04629)
[2] = target: the molecule itself; test: NMR titration; unlabeled p75-TM-C257A added incrementally to 0.5 mM 15N-labeled TrkA-TM; DPC micelles, LPR 80, pH 5.9, 318 K, 20 mM sodium phosphate
[3] = target: B2; test: NMR cross-correlated relaxation (rotational correlation time, hydrodynamic radius); cross-correlated relaxation rates of p75-TM-C257A amide signals (I259, V263, G266, A269, Y270) of monomer, homodimer and heterodimer in DPC micelles, 45 °C; settings: both partners purified
[4] = target: the molecule itself; test: as above

Sequence of full-length TrkA tagged with mTurquoise (P04629 33-796): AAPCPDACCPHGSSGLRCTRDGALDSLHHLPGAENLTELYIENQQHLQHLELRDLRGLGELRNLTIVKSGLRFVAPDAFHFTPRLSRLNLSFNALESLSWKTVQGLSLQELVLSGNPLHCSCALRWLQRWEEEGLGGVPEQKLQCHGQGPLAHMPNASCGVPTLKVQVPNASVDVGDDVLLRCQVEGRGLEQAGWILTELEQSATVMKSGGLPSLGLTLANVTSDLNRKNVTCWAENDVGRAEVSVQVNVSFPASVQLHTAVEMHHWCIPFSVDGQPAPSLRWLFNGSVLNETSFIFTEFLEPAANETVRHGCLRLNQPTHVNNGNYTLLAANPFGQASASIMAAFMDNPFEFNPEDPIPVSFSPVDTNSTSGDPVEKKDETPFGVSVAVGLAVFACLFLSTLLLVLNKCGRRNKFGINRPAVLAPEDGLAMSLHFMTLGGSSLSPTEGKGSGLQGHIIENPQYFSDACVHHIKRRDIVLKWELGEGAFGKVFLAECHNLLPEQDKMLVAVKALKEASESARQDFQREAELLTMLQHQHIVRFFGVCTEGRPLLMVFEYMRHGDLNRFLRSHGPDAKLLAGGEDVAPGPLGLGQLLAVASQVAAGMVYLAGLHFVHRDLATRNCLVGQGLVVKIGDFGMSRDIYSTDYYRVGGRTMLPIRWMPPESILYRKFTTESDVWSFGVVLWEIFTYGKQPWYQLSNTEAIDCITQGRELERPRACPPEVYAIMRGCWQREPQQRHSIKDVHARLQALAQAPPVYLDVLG

Molecule: p75–AGA mutation (triple mutation A262,G266,A269 to Ile) (from UniProt P08138 29-427) (receptor)
EC50 of NGF for TrkA phosphorylation (activation loop, Western blot) in HeLa cells coexpressing TrkA and p75–AGA, NGF 0 to 100 ng/ml [1]: 1.7 nM

Molecule: B2
stoichiometry N [4]: 2 chains in the oligomer (homodimer)

More lines, main results first:

EC50 of NGF for TrkA phosphorylation (activation loop, Western blot) in HeLa cells coexpressing TrkA and p75, NGF 0 to 100 ng/ml [1]: 0.299 nM
Molecule: full-length p75 tagged with enhanced YFP (from UniProt P08138 29-427) (receptor)

EC50 of NGF for TrkA phosphorylation (activation loop, Western blot) in HeLa cells coexpressing TrkA and p75-TNFR, NGF 0 to 100 ng/ml [1]: 2.7 nM
Molecule: p75-TNFR (p75 with its TMD swapped with the one from the TNFR) (from UniProt P08138 29-427) (receptor)

stoichiometry N [3]: 1 TrkA-TM per p75-TM-C257A (heterodimer)
B1: human TrkA-TM (domain or fragment)
chain: MKKDETPFGVSVAVGLAVFACLFLSTLLLVLNKAGRRNK
modifications: also: 15N-labeled in one set, unlabeled in the other
notes: methionine printed before K410; human TrkA transmembrane domain, K410 to K447; the A at 442 is printed underlined and not explained; also called TrkA-TM-wt; TrkA-TMD; source: cell-free expression (E. coli Rosetta(DE3)pLysS S30 extract), in DPC micelles
binding result [2]: binds
